Measurements as given in patent US20240352434, “COMPOSITIONS COMPRISING A VARIANT CAS12I3 POLYPEPTIDE AND USES THEREOF” (Arbor Biotechnologies, Inc., published 2024).

Columns and labels:
Cas12i3 R565G = biological target: T1, Cas12i3 R565G (Unidentified, R565G); test: cell_activity; fold change in % indels, HEK293T; PAM not stated in example
T1 chain: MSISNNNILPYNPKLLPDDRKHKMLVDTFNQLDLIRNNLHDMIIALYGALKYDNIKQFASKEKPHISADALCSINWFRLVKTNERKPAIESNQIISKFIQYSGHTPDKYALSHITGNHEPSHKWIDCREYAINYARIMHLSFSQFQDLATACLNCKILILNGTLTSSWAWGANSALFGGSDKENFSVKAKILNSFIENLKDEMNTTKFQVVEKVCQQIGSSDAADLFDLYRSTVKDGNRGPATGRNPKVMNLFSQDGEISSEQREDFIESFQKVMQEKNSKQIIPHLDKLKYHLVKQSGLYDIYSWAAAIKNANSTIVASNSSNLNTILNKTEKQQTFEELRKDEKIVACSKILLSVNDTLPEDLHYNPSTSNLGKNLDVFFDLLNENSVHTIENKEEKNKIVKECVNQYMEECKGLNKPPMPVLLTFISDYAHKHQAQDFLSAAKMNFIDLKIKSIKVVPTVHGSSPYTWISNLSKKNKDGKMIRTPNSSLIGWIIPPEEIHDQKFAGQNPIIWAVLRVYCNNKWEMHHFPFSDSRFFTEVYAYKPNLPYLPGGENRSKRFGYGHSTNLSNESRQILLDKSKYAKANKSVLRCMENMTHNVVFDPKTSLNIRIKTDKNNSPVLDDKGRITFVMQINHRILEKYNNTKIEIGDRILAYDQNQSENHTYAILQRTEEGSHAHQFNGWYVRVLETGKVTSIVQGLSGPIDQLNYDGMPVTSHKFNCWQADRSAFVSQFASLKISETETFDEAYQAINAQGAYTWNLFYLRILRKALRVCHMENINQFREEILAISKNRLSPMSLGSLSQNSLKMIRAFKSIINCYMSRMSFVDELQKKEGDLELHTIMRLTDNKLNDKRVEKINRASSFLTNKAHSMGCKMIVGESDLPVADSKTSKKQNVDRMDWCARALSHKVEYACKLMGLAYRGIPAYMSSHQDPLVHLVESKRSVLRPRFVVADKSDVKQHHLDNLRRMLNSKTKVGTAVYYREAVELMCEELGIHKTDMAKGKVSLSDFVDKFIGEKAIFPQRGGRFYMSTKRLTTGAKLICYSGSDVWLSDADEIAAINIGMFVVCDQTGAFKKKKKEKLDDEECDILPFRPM
Description: (§1) Approximately 16 hours prior to transfection, 100 μl of 25,000 HEK293T cells in DMEM/10% FBS+Pen/Strep were plated into each well of a 96-well plate. On the day of transfection, the cells were 70-90% confluent. For each well to be transfected, a mixture of 0.5 μl of Lipofectamine 2000 and 9.5 μl of Opti-MEM was prepared and then incubated at room temperature for 5-20 minutes (Solution 1). […] In the case of negative controls, the crRNA was not included in Solution 2. The solution 1 and solution 2 mixtures were mixed by pipetting up and down and then incubated at room temperature for 25 minutes. Following incubation, 20 μL of the Solution 1 and Solution 2 mixture were added dropwise to each well of a 96 well plate containing the cells. 72 hours post transfection, cells are trypsinized by adding 10 μL of TrypLE to the center of each well and incubated for approximately 5 minutes. 100 μL of D10 media was then added to each well and mixed to resuspend cells. The cells were then spun down at 500 g for 10 minutes, and the supernatant was discarded. QuickExtract buffer was added to ⅕ the amount of the original cell suspension volume. Cells were incubated at 65° C. for 15 minutes, 68° C. for 15 minutes, and 98° C. for 10 minutes.
(§2) Samples for Next Generation Sequencing were prepared by two rounds of PCR. The first round (PCR1) was used to amplify specific genomic regions depending on the target. PCR1 products were purified by column purification. Round 2 PCR (PCR2) was done to add Illumina adapters and indexes. Reactions were then pooled and purified by column purification. Sequencing runs were done with a 150 cycle NextSeq v2.5 mid or high output kit.

Cas12i3 K583R = biological target: T2, Cas12i3 K583R (Unidentified, K583R); test: as above
T2 chain: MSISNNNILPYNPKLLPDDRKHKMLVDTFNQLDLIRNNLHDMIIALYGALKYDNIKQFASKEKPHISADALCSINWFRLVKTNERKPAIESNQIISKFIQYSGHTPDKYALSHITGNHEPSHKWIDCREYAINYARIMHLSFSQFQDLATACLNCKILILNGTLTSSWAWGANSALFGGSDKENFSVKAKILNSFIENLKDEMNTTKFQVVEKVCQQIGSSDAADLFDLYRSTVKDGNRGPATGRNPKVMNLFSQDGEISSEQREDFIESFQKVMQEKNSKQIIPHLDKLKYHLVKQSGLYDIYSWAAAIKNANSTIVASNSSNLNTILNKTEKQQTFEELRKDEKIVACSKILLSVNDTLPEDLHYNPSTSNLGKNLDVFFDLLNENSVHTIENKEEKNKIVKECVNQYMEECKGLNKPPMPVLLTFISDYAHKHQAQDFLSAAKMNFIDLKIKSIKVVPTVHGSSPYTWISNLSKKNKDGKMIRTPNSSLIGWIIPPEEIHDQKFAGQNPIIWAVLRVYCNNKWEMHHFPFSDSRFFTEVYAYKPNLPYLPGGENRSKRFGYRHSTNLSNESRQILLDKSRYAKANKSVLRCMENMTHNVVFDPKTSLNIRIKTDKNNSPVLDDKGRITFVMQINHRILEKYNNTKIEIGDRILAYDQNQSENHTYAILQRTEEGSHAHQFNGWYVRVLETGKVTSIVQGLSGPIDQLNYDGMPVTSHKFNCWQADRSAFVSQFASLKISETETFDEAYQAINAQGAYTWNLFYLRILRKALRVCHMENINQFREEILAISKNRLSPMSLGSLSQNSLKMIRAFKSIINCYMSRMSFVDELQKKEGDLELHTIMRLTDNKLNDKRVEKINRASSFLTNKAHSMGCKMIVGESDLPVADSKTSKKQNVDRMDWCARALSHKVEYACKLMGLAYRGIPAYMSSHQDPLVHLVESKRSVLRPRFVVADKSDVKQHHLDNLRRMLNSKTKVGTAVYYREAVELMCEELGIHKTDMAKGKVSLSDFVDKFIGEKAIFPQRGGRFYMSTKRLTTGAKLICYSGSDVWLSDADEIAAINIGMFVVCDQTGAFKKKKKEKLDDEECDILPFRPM
Description: as §1, §2

B1: EMX1_T5 crRNA ; EMX1_T5 target (ssRNA ; dsDNA)
RNA: AUAGUGUGUCCUUAGUUGACAUUAUUAUUCCCAUAGGGAAGG
DNA 1: TATTATTCCCATAGGGAAGG
DNA 2: CCTTCCCTATGGGAATAATA
Question: How did the binding signal (Cas12i3 R565G) turn out when B1 was run?
Answer: The binding signal was 1.21 fold of wild-type.

Question: And the binding signal (Cas12i3 K583R)?
Answer: Its binding signal is 1.3 fold of wild-type.

B2: AAVS1_T3 crRNA ; AAVS1_T3 target (ssRNA ; dsDNA)
RNA: AUAGUGUGUCCUUAGUUGACAUGUGAGAAUGGUGCGUCCUAG
DNA 1: GTGAGAATGGTGCGTCCTAG
DNA 2: CTAGGACGCACCATTCTCAC
Question: Which binding signal (Cas12i3 R565G) does the source give for B2 here?
Answer: The binding signal was 1.86 fold of wild-type.

Question: And the binding signal (Cas12i3 K583R)?
Answer: The binding signal was 1.81 fold of wild-type.

B3: VEGFA_T2 crRNA ; VEGFA_T2 target (ssRNA ; dsDNA)
RNA: AUAGUGUGUCCUUAGUUGACAUAAUCCUCCACCAGUCAUGGU
DNA 1: AATCCTCCACCAGTCATGGT
DNA 2: ACCATGACTGGTGGAGGATT
Question: How did the binding signal (Cas12i3 R565G) turn out when B3 was run?
Answer: The binding signal was 0.73 fold of wild-type.

Question: And the binding signal (Cas12i3 K583R)?
Answer: The binding signal was 1.74 fold of wild-type.
